Measured values taken from the nanobody polyreactivity screen of Harvey et al. (2022).

Assay: yeast display, Sf9 membrane polyspecificity reagent, FACS + sequencing; frameworks hold sequencing errors
Method in brief: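 A synthetic nanobody library was expressed on Saccharomyces cerevisiae BJ5465 by galactose induction for 36–48 hours. The library was stained for 1 hour at 4 °C with 10% biotinylated, detergent-solubilized Sf9 membrane reagent and enriched with streptavidin microbeads before FACS. Low and high (top ~1%) gates were set on anti-HA fluorescence for expression and streptavidin fluorescence for reagent binding, and each polyreactivity label reflects the gate of origin.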
For “QVQLVESGGGLVQAGGSLRLSCAASGSTYRTYAMGWYRPAPGKERELVAAISSSGGSTYYADSVKGRFTISRDNAKNTVYLQMNSLKPEYTAVYYCNAGRSHRPHYDYWGQGTQVTVSS”, the “polyreactivity (PSR sort gate)” value was “high polyreactivity”. For “QVQLVESGGGLVQAGGSLRLSCAASGSTYRYTMGWYRQAPGKERELVAAITGSAGRTYYADSVKGRFTISRDNAKNTVYLQMNSLKPEDTAVYYCNKVRPRKFWDYYYWGQGTQVTVSS”, the “polyreactivity (PSR sort gate)” value was “high polyreactivity”. In the case of “QVQLVESGGGLVQAGGSLRLSCAASGSTYRYYAMGWYRQAPGKERELVAGISWSGTSTYYADSVKGRFTISRDNANNTVYLQMNSLKPEDTAVYYSNVVWWSRYGTTYKYDYWGQGTQVTVSS”, the “polyreactivity (PSR sort gate)” value is reported as “high polyreactivity”. For “QVQLVESGGGLVQAGGSLRLSCAASGSTYSWYVMGWYRQAPGKERELVAAISYRGGRTYYADSVKGRFTISRDNAKNTVYLQMNSLKPEDTAVYYCAARGVVDAGRTNRPYDYWGQGTQVTVSS”, the “polyreactivity (PSR sort gate)” value was “low polyreactivity”. In the case of “QVQLVESGGGLVQAGGSLRLSCAASGSTYVYYAMGWYRQAPGKERELVAAISSSGGSTYYADSVKGRFTISRDNAKNTVYLQMNILKPEDTAVYYCNRYSSYIPYPYNYWGQGTQVTVSS”, the “polyreactivity (PSR sort gate)” value is reported as “high polyreactivity”. For “QVQLVESGGGLVQAGGSLRLSCAASGSTYWNAMGWYRQAPGKERELVAAITFRGGSTYADSVKGRFTISRDNAKNTVYLQMNSLKPEDTAVYYCAKASSHRWYNVRNRAGYDYWGQGTQVTVSS”, the “polyreactivity (PSR sort gate)” value was “high polyreactivity”. With “QVQLVESGGGLVQAGGSLRLSCAASGSTYYAYAMGWYRQAPGKEREFVAAISSGGGSTYYADSVKGRFTISRDNAKNTVYLQMNSLKPVDTAVYYCAAVLYYYWRGYGPRSNRYDYWGQGTQVTVSS” the “polyreactivity (PSR sort gate)” value was “high polyreactivity”. For “QVQLVESGGGLVQAGGSLRLSCAASGSTYYFYPMGSYRQAPGKERELVAAISFTDTSTYYADSVQGRFTISRDNAKNTVYLQMNSLKPEDTAVYYCAARYAGGYYYWGQGTQVTVSS”, the “polyreactivity (PSR sort gate)” value was “high polyreactivity”. In the case of “QVQLVESGGGLVQAGGSLRLSCAASGSTYYNALGWYRPAPGKERELVAAIRFRSGSTYYADSVKGRFTISRDNAKNTDYVQMNSLKPEDTAVYYCAADNKRSWRYAYNYWGQGTQVTVSS”, the “polyreactivity (PSR sort gate)” value is reported as “high polyreactivity”. With “QVQLVESGGGLVQAGGSLRLSCAASGSYFDYYAMGCYTQAPGKERELVAAISWRGGTTYYADSVKGRFTISRDTAKKTVYLQMNSLKPEETAVYYCNADKRFRRYDYWGQGTQVTVSS” the “polyreactivity (PSR sort gate)” value was “high polyreactivity”. For “QVQLVESGGGLVQAGGSLRLSCAASGTFAGNALGWYRQAPGKERELVASITTGVRTYYADSGKGRFTLSRDNAKNTVYLQMHCLKPEDTAVYYCAADRIRDLEFYYWGQGTQVTVSS”, the “polyreactivity (PSR sort gate)” value was “low polyreactivity”. In the case of “QVQLVESGGGLVQAGGSLRLSCAASGTFAGNAMGWYRQAPGKERELVAAITTGGRTYYADSVKRRFTISRDNAKNTLYIQMNSLKPEDTAVYYCAADRIRDLEFDYWGQGTQVTVSS”, the “polyreactivity (PSR sort gate)” value is reported as “low polyreactivity”. With “QVQLVESGGGLVQAGGSLRLSCAASGTFGYMGWYRQAPGKERELVAAITSRGGGNTYYADSVKGRFTISRDNAKNTVYLQMNSLKPEDTAVYYCAASRVGYHGQTYDYWGQGTQVTVSS” the “polyreactivity (PSR sort gate)” value was “high polyreactivity”. For “QVQLVESGGGLVQAGGSLRLSCAASGTFGYYTMGWYRQAPGKERELVAAITRSGGSTYYADSVKGRFTISRDNAKNTVYLQMNSLKPEDTAVYYFATELHAWSSWNRYRAYYYWGQGTQVTVSS”, the “polyreactivity (PSR sort gate)” value was “high polyreactivity”. In the case of “QVQLVESGGGLVQAGGSLRLSCAASGTFHKYAMGWYRQAPGKERELVASISRSGGSTSYADSVKGRFTISRDNAKNTVYLQMNSLKPEDTAVYYCNAYQSSGRYRNSYGYWGQGTQVTVSS”, the “polyreactivity (PSR sort gate)” value is reported as “high polyreactivity”. With “QVQLVESGGGLVQAGGSLRLSCAASGTFKWYAMGWYRQAPGKERELVAVISSSGGTTYYADSVKGRFTISRDNAKNTVYLQMNSLKPEDTAVYYCNVVKRRSDWGMDYWGQGTQVTVSS” the “polyreactivity (PSR sort gate)” value was “high polyreactivity”. For “QVQLVESGGGLVQAGGSLRLSCAASGTFSQYAMGWYRQAPGKERQLVAAISQGGGSTYYADSVKGRFTISRDNAKNTVYLQMNSLKPEDTAVYYCARSRSYWGIVYGRYDYWGQGTQVTVSS”, the “polyreactivity (PSR sort gate)” value was “high polyreactivity”. With “QVQLVESGGGLVQAGGSLRLSCAASGTFSYYAMGWYIQAPGKERELVATIRSGGRTYYADSVKGRFTISRDNAKNTVYLQMNSLKPEDTAVYYCAKTGFLGLRQYGYWGQGTRVTVSS” the “polyreactivity (PSR sort gate)” value was “high polyreactivity”. In the case of “QVQLVESGGGLVQAGGSLRLSCAASGTFVKYARGWYRQAPGKERELVATITGSGGSTYYADSVKGRFTISRDNAKNTVYLQMNSLKPEDTAVYYCAAREGYVFYKYDYWGQGTQVTVSS”, the “polyreactivity (PSR sort gate)” value is reported as “low polyreactivity”. In the case of “QVQLVESGGGLVQAGGSLRLSCAASGTFYKYSMGWYRQAPGKERELVAAISWRGGRTYADSVKGRFTISRDNAKNTVYLQMNSLKPEDTAVYYCNKRFYPEHYYWGQGTQVTVSS”, the “polyreactivity (PSR sort gate)” value is reported as “high polyreactivity”. In the case of “QVQLVESGGGLVQAGGSLRLSCAASGTFYYYAMGWYRQAPGKERDLVAGITSGGSTYYADSVKGRFTISRDNAKNTVYLQMNSLKPEDTAVYYCNTKVISRTSERRGNGFTRYDYWGQGTQVTVSS”, the “polyreactivity (PSR sort gate)” value is reported as “low polyreactivity”. For “QVQLVESGGGLVQAGGSLRLSCAASGTFYYYAMGWYRQAPGKERELVAAIDYSGGSTYYADSVKGRFTISRDNAKNTVYLQMNSLKPEDTAVYYCAYVSVYDFEFWGQGTQVTVSS”, the “polyreactivity (PSR sort gate)” value was “high polyreactivity”. With “QVQLVESGGGLVQAGGSLRLSCAASGTIFAANAMGWYRQAPGKERELVAAISSGDGTYYADSVKGRFTISRDNAKNTVYLQMNSLKPEDTAVYYCAARFTYYSGYYAGSYGYWGQGTQVTVSS” the “polyreactivity (PSR sort gate)” value was “high polyreactivity”. For “QVQLVESGGGLVQAGGSLRLSCAASGTIFAPNAMGWYRQAPGKERELVAAISRSGGRTYYADSVKGRFTISRDNAKNTVYLQMNSLKPEDTAVYYCAADYKHQRTYGSWGQGTQVTVSS”, the “polyreactivity (PSR sort gate)” value was “high polyreactivity”. For “QVQLVESGGGLVQAGGSLRLSCAASGTIFATYAMGWYRQAPGKERELVAAITSSDGSTNYADSVKGRFTISRDNAKNTVYLQMNSLKPEDTAVYYCAKDTPQSYFRYDYLGQGTQVTVSS”, the “polyreactivity (PSR sort gate)” value was “low polyreactivity”. For “QVQLVESGGGLVQAGGSLRLSCAASGTIFDDNAMGWYRHAPGKERELVAAISANDGSTYYADSVKGRFTISRDNAKNTVYLQMNSLKQEDTAVYYCAVLRVETVDIWEYDYWGQGTQVTVTS”, the “polyreactivity (PSR sort gate)” value was “low polyreactivity”. With “QVQLVESGGGLVQAGGSLRLSCAASGTIFFFYVMGWYRQAPGKERELVAAITYSGGSTFYADSVKGRFTISRDNAKNTVYLQMNSLKPEDTAVYYCAAVYGQWTPLDPYNHWGQGTQVTVSS” the “polyreactivity (PSR sort gate)” value was “low polyreactivity”. In the case of “QVQLVESGGGLVQAGGSLRLSCAASGTIFLVYAMGWYIQAPGKERELVAAITFSGGDTYADSVKGRFTISRDNAKNTVYLQMNSLKPEDTAVYYCNAPWPYYGSVVGQDFDYWGQGTQVTVSS”, the “polyreactivity (PSR sort gate)” value is reported as “low polyreactivity”. With “QVQLVESGGGLVQAGGSLRLSCAASGTIFQQYAMGWYRQAPGKERELVAAISYSGGTTYYADSVKGRFTISRDNAKNTVYLQMNSLKPEYTSVYYCAAYYPSGSYDYYWGQGTQVTVSS” the “polyreactivity (PSR sort gate)” value was “low polyreactivity”. For “QVQLVESGGGLVQAGGSLRLSCAASGTIFSRNAMGWYRQAPGKERELVAAINARGGSTYYADSVKGRFTISRDNAKNTVYLQMNSLKPEDTAVYYCAARYGVGRADYYWGQGTQVTVSS”, the “polyreactivity (PSR sort gate)” value was “high polyreactivity”. With “QVQLVESGGGLVQAGGSLRLSCAASGTIFTDNVMGWYRQAPGKERELVAAITYSAASTYYADSVKGRFTISRDNAKNTVYLQMNSLKPEDTAVYYCNADDPDYLVSYRYDYWGQGTQVTVSS” the “polyreactivity (PSR sort gate)” value was “low polyreactivity”. For “QVQLVESGGGLVQAGGSLRLSCAASGTIPGYAMGWYRQAPGKETELVAAITWSDDSTFYADSVKGRFTISRDNAKNTVYLQMNSLKPEDTAVYYCAAEYVVSTQEFDYWGQGTQVTVSS”, the “polyreactivity (PSR sort gate)” value was “low polyreactivity”.
